Consider four molecules from publication PMC8949964, “In Vitro Biological Evaluation of Aprepitant Based ^177Lu-Radioconjugates” (Pharmaceutics, 2022).

“And” between values parts separate entries of the source, which are not always exact repeats. Identical values can stand only once. Like-named read-outs stand apart in the source and are kept apart here. Square brackets hold non-standard residues; d marks the D form. Peptide text beside a SMILES is read from it. * marks the point of attachment. DOTA = O=C(O)CN1CCN(CC(=O)O)CCN(CC(=O)*)CCN(CC(=O)O)CC1; Met(O2) = CS(=O)(=O)CC[C@H](N)C(=O)O; 2Thi = N[C@@H](Cc1cccs1)C(=O)O

For orientation: logD means the decadic logarithm of the distribution of all forms, ionised or not, between an organic phase and buffer at a given pH.

The format of data set [1] is physicochemical. Here is the method:
A solution of purified ^177Lu-radioconjugate (around 1 MBq) or ^68Ga-radioconjugate (around 10 MBq) in 100 µL of 0.1M DPBS buffer was added into of 900 µL of 0.1 M DPBS buffer and 1000 µL of N-octanol (saturated with each other), vigorously stirred and centrifuged at 13,500 rpm for 5 min. Then, similar aliquots of both separated phases were taken for radioactivity measurement using a well-type NaI(Tl) detector. The lipophilicity values were expressed as the decimal logarithm of the distribution coefficient, D, which was calculated as a ratio of the radioconjugate radioactivity in the organic phase to that in the aqueous phase. Each experiment was performed in triplicate and the obtained values averaged. In parallel, the aqueous phases were analyzed by HPLC to confirm the stability of the studied radioconjugate during the experiment time.

In a further data set the target is T1, human NK1 receptor (Homo sapiens, UniProt P25103).
T1 construct: expressed in transfected cells; host or cells: CHO-K1 (hNK1R-CHO), gift from Dr. Attila Keresztes and Dr. John M. Streicher
Kind of data set: Saturation binding of 177Lu-radioconjugates to hNK1R-CHO cells. The following applies: maximal binding concentration, 60 min at 37 °C, specific activity 5 MBq/nmol.

T1 sequence (P25103 whole entry): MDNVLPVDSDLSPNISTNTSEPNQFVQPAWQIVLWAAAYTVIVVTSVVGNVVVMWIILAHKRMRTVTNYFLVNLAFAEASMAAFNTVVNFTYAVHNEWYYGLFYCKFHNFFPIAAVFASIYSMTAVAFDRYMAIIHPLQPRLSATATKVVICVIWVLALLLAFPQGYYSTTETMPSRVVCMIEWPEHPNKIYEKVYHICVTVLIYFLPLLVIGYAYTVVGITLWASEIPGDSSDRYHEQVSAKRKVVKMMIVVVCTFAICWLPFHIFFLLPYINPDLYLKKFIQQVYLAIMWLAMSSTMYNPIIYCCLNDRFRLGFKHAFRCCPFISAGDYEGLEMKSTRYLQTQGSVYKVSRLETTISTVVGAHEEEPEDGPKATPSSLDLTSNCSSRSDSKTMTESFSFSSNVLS
Method for human NK1 receptor: Cells were grown in Ham’s F12 medium (Biological Industries, Beit HaEmek, Israel) supplemented with 10% Foetal Bovine Serum (Biological Industries, Beit HaEmek, Israel) and 400 μg/mL G418 (Capricorn Scientific, Ebsdorfergrund, Germany), incubated in a humidified atmosphere with 5% CO2 at 37 °C.
In brief, 10^5 cells per well were seeded into 24-well plates and incubated 24 h before the experiment. Just before the assay, the cells were washed with 37 °C Dulbecco’s PBS and then incubated with different concentrations of an analyzed radioconjugate (0.2–50 nM at a final volume) in the medium, with or without a 1000-fold molar excess of blocker (aprepitant or [Thi^8,Met(O2)^11]SP) in relation to the highest radioconjugate concentration applied for 60 min at 37 °C. After incubation time, the assay medium was collected into plastic tubes for radioactivity measurement and the cells were washed twice with ice-cold Dulbecco’s PBS. Subsequently, the cells were lysed using 1 M NaOH and collected into plastic tubes also for radioactivity measurement.
The radioactivity of collected samples were measured using a Wizard2 2-Detector Gamma Counter (PerkinElmer, Waltham, MA, USA). […] The Kd and BMAX with standard deviations (SD), were calculated using the “One site-total and nonspecific binding” nonlinear regression curve fit (GraphPad Prism 8, GraphPad, San Diego, CA, USA).

Turning to `C[C@@H](O[C@H]1OCCN(Cc2nn(CCCCCCNC(=O)CN3CCN(CC(=O)O)CCN(CC(=O)O)CCN(CC(=O)O)CC3)c(=O)[nH]2)[C@H]1c1ccc(F)cc1)c1cc(C(F)(F)F)cc(C(F)(F)F)c1` [APT-Hex-DOTA, 2-(6-(2-(1,4,7-tris(carboxymethyl)-1,4,7,10-tetraazacyclododecan-10-yl)acetamido)hexyl)-5-([(2R,3S)-2-((R)-1-[3,5-bis(trifluoromethyl)phenyl]ethoxy)-3-(4-fluorophenyl)morpholino]methyl)-1H-1,2,4-triazol-3-one], the logD turned out to be 0.58 ± 0.03 in data set [1] (pH 7.4, logD 68Ga-) and 1.23 ± 0.03 in data set [1] (pH 7.4, logD 177Lu-).

For `CC(C)C[C@H](NC(=O)CNC(=O)[C@H](Cc1cccs1)NC(=O)[C@H](Cc1ccccc1)NC(=O)[C@H](CCC(N)=O)NC(=O)[C@H](CCC(N)=O)NC(=O)[C@@H]1CCCN1C(=O)[C@H](CCCCN)NC(=O)[C@@H]1CCCN1C(=O)[C@H](CCCNC(=N)N)NC(=O)CN1CCN(CC(=O)O)CCN(CC(=O)O)CCN(CC(=O)O)CC1)C(=O)N[C@@H](CCS(C)(=O)=O)C(N)=O` [[^177Lu]Lu-DOTA-[Thi^8,Met(O2)^11]SP, metal not drawn] ({DOTA}-RPKPQQF[2Thi]GL[Met(O2)]-NH2; N-terminus and C-terminus assumed), on human NK1 receptor, the “BMAX ± SD” value was 0.38 nM and 0.38 ± 0.02 nM.

With `C[C@@H](O[C@H]1OCCN(Cc2nn(CCCCCCCCCCNC(=O)CN3CCN(CC(=O)O)CCN(CC(=O)O)CCN(CC(=O)O)CC3)c(=O)[nH]2)[C@H]1c1ccc(F)cc1)c1cc(C(F)(F)F)cc(C(F)(F)F)c1` [APT-Dec-DOTA, 2-(10-(2-(1,4,7-tris(carboxymethyl)-1,4,7,10-tetraazacyclododecan-10-yl)acetamido)decyl)-5-([(2R,3S)-2-((R)-1-[3,5-bis(trifluoromethyl)phenyl]ethoxy)-3-(4-fluorophenyl)morpholino]methyl)-1H-1,2,4-triazol-3-one], the logD in data set [1] (pH 7.4, logD 68Ga-) amounted to 1.6 ± 0.04; in data set [1] (pH 7.4, logD 177Lu-), 1.97 ± 0.02.

Regarding `C[C@@H](O[C@H]1OCCN(Cc2nn(CCCCCCCCNC(=O)CN3CCN(CC(=O)O)CCN(CC(=O)O)CCN(CC(=O)O)CC3)c(=O)[nH]2)[C@H]1c1ccc(F)cc1)c1cc(C(F)(F)F)cc(C(F)(F)F)c1` [APT-Oct-DOTA, 2-(8-(2-(1,4,7-tris(carboxymethyl)-1,4,7,10-tetraazacyclododecan-10-yl)acetamido)octyl)-5-([(2R,3S)-2-((R)-1-[3,5-bis(trifluoromethyl)phenyl]ethoxy)-3-(4-fluorophenyl)morpholino]methyl)-1H-1,2,4-triazol-3-one], the logD in data set [1] (pH 7.4, logD 68Ga-) was found to be 1.32 ± 0.04; in data set [1] (pH 7.4, logD 177Lu-), 1.64 ± 0.02.
